Data on one substance can be found in patent publication WO2016008851A1.

Assay [1] deals with recombinant human IL-1B (human) (UniProt P01584). The assay can be described thus: cell-based or functional assay.
Assay [2] deals with Endogenous human IL-1B (THP1 supernatants) (human) (UniProt P01584). The assay can be described thus: cell-based or functional assay.

Turning to “ACZ885 (disclosed in WO 2002/016436) (antibody)”, in assay [1], the IC50, rec. human IL-1 B, HEK blue is 0.068 nM; the IC50, rec. human IL-1 B, MRC-5 (IL-6 production) was determined as 0.032 nM; the IC90, rec. human IL-1 B, HEK blue turned out to be 0.503 nM; the IC90, rec. human IL-1 B, MRC-5 (IL-6 production) was 0.449 nM. In addition, the IC90, Endogenous human IL-1 B (THP1 supernatants), HEK blue in assay [2] was found to be 0.292 nM.
